The values that follow come from US20240052034A1 (PANDION OPERATIONS, published 2024).

For assay [1], the target named is T1, biotinylated huPD-1 (human, UniProt Q15116 25-167, limits assumed, biotinylated (site not stated)).
T1 construct: also called human PD-1
The experiment in a line: BLI (biosensor): biotinylated huPD-1 on streptavidin tips, fragment in solution. As for the experimental part:
(§1) Anti-human IgG Fc (AHC) or Streptavidin (SA) biosensor were equilibrated in assay buffer for 20 minutes. Fe-tagged mouse and cynomolgus PD-1 was diluted to 5 μg/mL and biotinylated huPD-1 article was diluted to 0.5 μg/mL in assay buffer (1×PBS, 1% BSA, 0.05% Tween20). […] PD-1 was loaded on tips for 180 s followed by a 180 s association phase with PD-1 and 180 s dissociation phase in assay buffer.

For assay [2], the target named is T2, Fc-tagged mouse PD-1 (mouse, UniProt Q02242 25-167, limits assumed).
T2 construct: Printed 'Fe-tagged', read as Fc-tagged; also called Fe-tagged mouse PD-1 (so in the source); not shown: Fc tag
T2 sequence (looked up): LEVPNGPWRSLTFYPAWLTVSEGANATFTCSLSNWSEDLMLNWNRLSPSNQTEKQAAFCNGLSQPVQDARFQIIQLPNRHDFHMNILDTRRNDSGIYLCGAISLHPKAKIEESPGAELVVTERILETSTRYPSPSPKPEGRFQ
The experiment in a line: BLI (biosensor): Fc-tagged PD-1 on anti-human IgG Fc tips, fragment in solution. As for the experimental part:
as §1

Assay [3] concerns the target T3, Fc-tagged cynomolgus PD-1 (cynomolgus, UniProt B0LAJ3 25-170).
T3 construct: Printed 'Fe-tagged', read as Fc-tagged; also called cyno PD-1; Fe-tagged cynomolgus PD-1 (so in the source)
Described as above. The method, then:
as §1

Assay [4] addresses T4, human PD-1 (human, UniProt Q15116 25-167, limits assumed).
T4 construct: also called huPD-1
As to the kind of experiment: ELISA: plate-coated PD-1, detection by anti-kappa-HRP.

The target in assay [5] is T5, mouse PD-1 (mouse, UniProt Q02242 25-167, limits assumed).
T5 sequence (looked up): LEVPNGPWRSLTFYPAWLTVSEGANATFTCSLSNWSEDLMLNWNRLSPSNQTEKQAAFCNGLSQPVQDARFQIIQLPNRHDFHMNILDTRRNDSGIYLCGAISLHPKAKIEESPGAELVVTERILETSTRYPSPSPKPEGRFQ
The assay is described as above.

For assay [6], the target named is T6, cynomolgus PD-1 (cynomolgus, UniProt B0LAJ3 25-170).
T6 construct: also called cyno PD-1
The assay is described as above.

T1 sequence (Q15116 25-167 limits assumed): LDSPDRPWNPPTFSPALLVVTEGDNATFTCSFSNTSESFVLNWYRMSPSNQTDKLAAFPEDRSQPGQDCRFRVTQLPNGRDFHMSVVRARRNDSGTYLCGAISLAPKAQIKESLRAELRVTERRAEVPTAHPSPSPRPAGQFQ
T3 sequence (B0LAJ3 entry or part of it limits assumed): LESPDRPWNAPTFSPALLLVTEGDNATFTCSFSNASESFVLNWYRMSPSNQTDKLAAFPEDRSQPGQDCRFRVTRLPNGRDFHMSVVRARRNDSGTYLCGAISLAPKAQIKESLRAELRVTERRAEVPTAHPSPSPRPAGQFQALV
T4 sequence (Q15116 25-167 limits assumed): as the sequence (Q15116 25-167 limits assumed) above
T6 sequence (B0LAJ3 entry or part of it limits assumed): as the sequence (B0LAJ3 entry or part of it limits assumed) above

B1: Fab moiety of the PD1AB53 (Fab, V domains shown)
VH: EVQLLESGGGLVQPGGSLRLSCAASGFTFSSYDMSWVRQAPGKGLEWVSGITISGGSTYYADSVKGRFTISRDNSKNTLYLQMNSLRAEDTAVYYCARGRGGSGWLDYWGQGTTVTVSS
VL: not shown
notes: also called PD1AB53 Fab
Regarding B1, the Kd in assay [1] came to 32.6 nM; in assay [3], 30.3 nM. In addition, in assay [2], the binding result is listed as “no binding (tested: PD1AB53 Fab: dilution series from 500 nM)”.

B2: scFv moiety of the PD1AB53 (scFv)
scFv: DIQMTQSPSSLSASVGDRVTITCQASRDIKNYLAWYQQKPGKAPKLLIYAASSLQSGVPSRFSGSGSGTDFTLTISSLQPEDFATYYCQQSYSTPPTFGCGTKVDIKGGGGSGGGGSGGGGSGGGGSEVQLVQSGAEVKKPGASVKVSCKASGYSFTTYYMHWVRQAPGQCLEWMGIINPSGGSTSYAQKFQGRVTMTRDTSTSTVYMELSSLRSEDTAVYYCASGWVYWGQGTLVTVSS
notes: also called PD1AB53 scFv
As for B2, the figures for the dissociation constant (Kd) in assay [1], in assay [2] and in assay [3] were 1350 nM, 1060 nM and 1170 nM, respectively.

B3: PD1AB69 (bispecific antibody, human IgG1, kappa)
heavy: EVQLLESGGGLVQPGGSLRLSCAASGFTFSSYDMSWVRQAPGKGLEWVSGITISGGSTYYADSVKGRFTISRDNSKNTLYLQMNSLRAEDTAVYYCARGRGGSGWLDYWGQGTTVTVSSASTKGPSVFPLAPSSKSTSGGTAALGCLVKDYFPEPVTVSWNSGALTSGVHTFPAVLQSSGLYSLSSVVTVPSSSLGTQTYICNVNHKPSNTKVDKKVEPKSCDKTHTCPPCPAPEAAGAPSVFLFPPKPKDTLMISRTPEVTCVVVDVSHEDPEVKFNWYVDGVEVHNAKTKPREEQYNSTYRVVSVLTVLHQDWLNGKEYKCKVSNKALPAPIEKTISKAKGQPREPQVYTLPPSREEMTKNQVSLTCLVKGFYPSDIAVEWESNGQPENNYKTTPPVLDSDGSFFLYSKLTVDKSRWQQGNVFSCSVMHEALHNHYTQKSLSLSPGGGGSEGGGSEGGGSEDIQMTQSPSSLSASVGDRVTITCQASRDILNYLAWYQQKPGKAPKLLIYAASSLQSGVPSRFSGSGSGTDFTLTISSLQPEDFATYYCQQSYSTPPTFGCGTKVDIKGGGGSGGGGSGGGGSGGGGSEVQLVQSGAEVKKPGASVKVSCKASGYSFTTYYMHWVRQAPGQCLEWMGIINPSGGSTSYAQKFQGRVTMTRDTSTSTVYMELSSLRSEDTAVYYCASGWVYWGQGTLVTVSS
light: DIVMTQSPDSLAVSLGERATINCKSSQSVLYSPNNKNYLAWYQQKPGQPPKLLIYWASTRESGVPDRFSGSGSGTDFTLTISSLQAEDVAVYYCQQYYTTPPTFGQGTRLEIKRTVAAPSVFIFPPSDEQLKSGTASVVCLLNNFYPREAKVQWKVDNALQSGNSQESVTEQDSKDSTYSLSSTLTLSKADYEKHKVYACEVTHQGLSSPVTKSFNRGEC
Turning to B3, the binding result in assay [4], in assay [5] and in assay [6] was “binds” each time.

B4: scFv moiety of the PD1AB37 (scFv)
scFv: EVQLLESGGGLVQPGGSLRLSCAASGFTFSSYDMSWVRQAPGKGLEWVSGITISGGSTYYADSVKGRFTISRDNSKNTLYLQMNSLRAEDTAVYYCARGRGGSGWLDYWGQGTTVTVSSGGGGSGGGGSGGGGSGGGGSDIVMTQSPDSLAVSLGERATINCKSSQSVLYSPNNKNYLAWYQQKPGQPPKLLIYWASTRESGVPDRFSGSGSGTDFTLTISSLQAEDVAVYYCQQYYTTPPTFGQGTRLEIK
notes: also called PD1AB37 scFv
For B4, the Kd in assay [1] is 89.9 nM; in assay [3] it was 58.6 nM. In addition, the binding result in assay [2] is listed as “no binding”.
